Results published in US12624096B2, “Anti-tau antibodies and methods of use thereof” (GTInvent Limited, priority 2020, dated 2026).

B1: E1E8: anti-tau clone, SEQ ID NO: 250 (protein)
scFv: QVQLQESGPSLVKPSQTLSLTCTVSGFSLTDWGVAWVRQAPGKALEWLGTMRSGGTTDDNPALKSRLSITRDTSKSQVSLSLSSVTTEDMAMYYCARGYLSGVHYAWGRGLLVTVSSEGKSSGASGESKVDDQAVLTQPSSVSGSLGQSVSITCSGSSSNVGDGRYVSWFQQVPGSAPKLLIYDTTSRASGVPDRFSGSRSGNTATLIITSLQAEDEADYYCASIDSGNNLLFGSGTRLTVLG
modifications: E1E8 amino acid sequence
B2: S1G2 mAb: S1G2 reformatted as mAb, SEQ ID NO: 457 and 458 (antibody)
heavy: QVQLQESGPSLVKPSQTLSLTCTVSGFSLTSNSVGWVRQAPGKAPEWVAGIDTDGEEGYNPALNSRLSITRDTSKSQVSLSLSSVTSEDTAVYYCGRSYRADGLAYGYVQAIDYWGPGLLVTVSSAKTTAPSVYPLAPVCGDTTGSSVTLGCLVKGYFPEPVTLTWNSGSLSSGVHTFPAVLQSDLYTLSSSVTVTSSTWPSQSITCNVAHPASSTKVDKKIEPRGPTIKPCPPCKCPAPNLLGGPSVFIFPPKIKDVLMISLSPIVTCVVVDVSEDDPDVQISWFVNNVEVHTAQTQTHREDYNSTLRVVSALPIQHQDWMSGKEFKCKVNNKDLPAPIERTISKPKGSVRAPQVYVLPPPEEEMTKKQVTLTCMVTDFMPEDIYVEWTNNGKTELNYKNTEPVLDSDGSYFMYSKLRVEKKNWVERNSYSCSVVHEGLHNHHTTKSFSRTPGK
light: QAVVTQPSSVSGSLGQRVSITCSGSFIGISSVGWFQQLPGSGLRTIIVASDGRPSGVPDRFSMSKSGNTATLTISSLQAEDEADYFCGSSDRTPYTGVFGSGTRLTVLGGQPKSSPSVTLFPPSSEELETNKATLVCTITDFYPGVVTVDWKVDGTPVTQGMETTQPSKQSNNKYMASSYLTLTARAWERHSSYSCQVTHEGHTVEKSLSRADCS
modifications: S1G2 mAB Heavy Chain; S1G2 mAB Light Chain
B3: E2E8 mAb: E2E8 reformatted as mAb, SEQ ID NO: 493 and 494 (antibody)
heavy: QVQLQESGPSLVKPSQTLSLTCTVSGFSLTDRGVAWVRQAPGKALEWVGTMRSGGTIDYNPALKSRLSITRDTSKSQVFLSLSSVTTEDMAMYYCARGYLSGDRYAWGRGLLVTVSSAKTTAPSVYPLAPVCGDTTGSSVTLGCLVKGYFPEPVTLTWNSGSLSSGVHTFPAVLQSDLYTLSSSVTVTSSTWPSQSITCNVAHPASSTKVDKKIEPRGPTIKPCPPCKCPAPNLLGGPSVFIFPPKIKDVLMISLSPIVTCVVVDVSEDDPDVQISWFVNNVEVHTAQTQTHREDYNSTLRVVSALPIQHQDWMSGKEFKCKVNNKDLPAPIERTISKPKGSVRAPQVYVLPPPEEEMTKKQVTLTCMVTDFMPEDIYVEWTNNGKTELNYKNTEPVLDSDGSYFMYSKLRVEKKNWVERNSYSCSVVHEGLHNHHTTKSFSRTPGK
light: QAVLTQPSSVSKSLGQSVSIACSGSRSDIGYGNYVSWFQQIPGSAPKLLIYDTNTRASGVPDRFSGARSGNTATLTINSLQAEDEADYYCANIDSSRSHLFGSGTRLTVLGGQPKSSPSVTLFPPSSEELETNKATLVCTITDFYPGVVTVDWKVDGTPVTQGMETTQPSKQSNNKYMASSYLTLTARAWERHSSYSCQVTHEGHTVEKSLSRADCS
modifications: E2E8 mAB Heavy Chain; E2E8 mAB Light Chain
B4: E2E8: anti-tau clone, SEQ ID NO: 248 (protein)
scFv: QVQLQESGPSLVKPSQTLSLTCTVSGFSLTDRGVAWVRQAPGKALEWVGTMRSGGTIDYNPALKSRLSITRDTSKSQVFLSLSSVTTEDMAMYYCARGYLSGDRYAWGRGLLVTVSSEGKSSGASGESKVDDQAVLTQPSSVSKSLGQSVSIACSGSRSDIGYGNYVSWFQQIPGSAPKLLIYDTNTRASGVPDRFSGARSGNTATLTINSLQAEDEADYYCANIDSSRSHLFGSGTRLTVLG
modifications: E2E8 amino acid sequence
B5: CA2: anti-tau clone, SEQ ID NO: 363 (protein)
scFv: QVQLQESGPSLVKPSQTLSLTCTVSGFSLSSVAVNWVRQAPGKVPEWLGGIISNGGTGYNPALKSRLSITRDTSKSQVSLALTHVTTEDTAVYYCGRGVEWEGSMDYLGPGLLVTVSSEGKSSGSGSETKVDDQSVLTQPSSVSGFLGQRVTITCSGSSSNVGAGSYVGWYQQVPGSGLRILIYGATKRASGLPDRFSGSRSGNTATLTISSLQAEDEADYYCVSYQTDFTLVFGSGTRLTVLG
modifications: CA2 amino acid sequence

How the values were obtained:
[1] = test system: hT40, dGA, dGAE and truncated tau fragments/peptides; experiment: Binding ELISA for epitope mapping with truncated tau proteins and biotinylated 13mer peptides; parameters: species or system human; conditions: direct binding ELISA
Description: A series of binding ELISA was performed using various truncated versions of the tau protein and 13mer peptide libraries spanning the entire hT40 molecule for mapping the epitopes of anti-tau scAbs (Full list of protein antigens used is given in Table 14). In general, ELISA plates were coated with 1 μg/ml hT40 or dGA or dGAE or other truncated versions of the protein and in the case of biotinylated peptides, plates were coated with 5 μg/ml Streptavidin followed by 1 μg/ml biotinylated peptide. The plates were blocked with 2% MPBS and scAb samples added at desired starting concentrations and double diluted across the plate. Binding was detected using anti-Human C Kappa HRP conjugated secondary antibody and the resulting immunoreaction was developed and absorbance values measured as described above.
Similarly, dGA binding ‘NS’, ‘S’ and ‘M’ group scAbs were subjected to further antigen binding ELISA using shorter tau proteins and biotinylated 13mer peptides as shown below (FIGS. 10A-F) and (FIGS. 11A-R).
For anti-tau mAb SPR measurements (Biacore X100™) and epitope mapping, the same methodologies described above (see Example 16) were followed.

dGAE = dGAE (Homo sapiens, UniProt P10636); experiment: Biacore X100 SPR, scAb captured via anti-HuCk, dGAE as analyte; format: binding; conditions: dissociation rate
Description: Surface plasmon resonance (SPR) is widely regarded as the gold standard for real time measurement of protein-protein interactions such as antibody binding. All SPR experiments were carried out using a Biacore X100 machine and HBS EP+ running buffer (GE Healthcare). A ‘capture’ method was followed for affinity measurements, where an anti-human constant kappa chain (HuCk) antibody was conjugated to the surface of a CM5 sensor chip using an amine coupling kit and scAb molecules were immobilised via their HuCk domain. Amine coupling is a very common approach for immobilising the ligand to the chip surface. The chip surface has a dextran matrix derivatised with carboxyl groups, which after activation with N-hydroxysuccinimide (NHS) and 1-ethyl-3-(3-dimethylaminopropyl) carbodiimide (EDC), form reactive succinimide esters which allows the covalent capturing of the ligand via any available primary amine groups (e.g. Lysine) on the ligand (in this case anti-HuCk antibody). The capture antibody was diluted 1/100 in 10 mM Sodium acetate buffer pH 5.0 and passed over the activated chip surface for a period of at least 420 s. […]
The single cycle kinetics protocol was similar and utilised the same level of scAb capture. […] Binding responses were analysed in Biacore X100 evaluation software and data fitted to a 1:1 binding model to obtain kinetic and affinity characterisation.

aggregated dGAE = aggregated dGAE (Homo sapiens, UniProt P10636); experiment: Capture ELISA ranking of mAbs on dGAE aggregates; format: binding; conditions: 1 μg/ml capture mAb, 800 nM aggregated dGAE
Description: The aggregation cascade of natively unfolded tau into insoluble filaments is a defining pathological feature of AD. Therefore, it is logical to target aggregated tau filaments for both therapeutic and diagnostic purposes. The following experiment was performed to assess the ability of our dGA mAb panel to bind aggregated dGAE using a capture ELISA method. Aggregates were prepared by incubating 100 μM dGAE and 10 mM dTT for 24 h at 37° C. with shaking at 700 RPM. The following day, dGAE aggregates were centrifuged at 17,000×g for 20 min and the supernatant was removed. The remaining pellet was washed with 10 mM phosphate buffer and centrifuged as above. Washing was repeated a further two times to remove any remaining dGAE monomer. The dGAE pellet was resuspended in 100 μl of 10 mM phosphate buffer. (Using a separate capture ELISA based quantification, we have worked out the efficiency of our dGAE aggregation as 80%)
For assessing the mAb panel for aggregate binding, designated rows of a maxisorp plate were coated with 1 μg/ml of each of the capture mAbs (S1D12, S1G2, CA4, NS2A1, CE2, E2E8 and CB7) and blocked as before. Following washing, 800 nM aggregated dGAE was added to the designated wells, double diluted across the plate and incubated for 1 h at RT. The plate was washed again and 1 μg/ml S1G2 scAb was added as detection antibody and incubated for 1 h at RT. To the row where S1G2 mAb was used for capture, […] s1D12 scAb was added as […] instead of S1G2. The assay was developed using HRP labelled HuCK as described previously.

hT40 [2] = biological target: T1, hT40 (Homo sapiens, UniProt P10636); experiment: Biacore X100 SPR, scAb captured via anti-HuCk, hT40 as analyte; format: binding; conditions: scAb
Summary of the method: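 Captured scAb on anti-HuCk CM5 surface (flow cell 1 as reference) in HBS-EP+, capture set for theoretical RMax 100 RU; hT40 injected multi-cycle (0.15625–100 nM) or single-cycle (6.25–100 nM), 120 s association, 420 s dissociation, glycine pH 2.0 regeneration. Kinetics and affinity from 1:1 binding model fit.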

hT40 [3] = biological target: T1, hT40; experiment: Sandwich ELISA, limits of detection (LoD) of antibody pairs; format: binding; conditions: S1D12 mAb capture, detection scAb
Description: Full length tau (hT40), at 1 μg/ml starting concentration was added to designated wells and double diluted across rest of the plates and left to incubate at R/T for 1 h. A series of detection scAbs with varying epitope recognition properties were added at 10 μg/ml to designated wells (FIG. 22). For colourimetric detection HRP conjugated anti-HuCk secondary antibody was used and the resulting immunoreaction was developed and absorbance at 450 nm measured as described previously. Cut-off point for a positive binding event was an absorbance value of 0.3 following background subtraction. In order to enhance the assay sensitivity, a chemiluminescent detection method was adopted where 50 μL SuperSignal ELISA Femto Substrate (Thermo Scientific) was added to each well following incubation with anti-HuCK HRP antibody and subsequent washing. The luminescence was read using Clariostar Plus microplate reader. A further modification to this protocol was done where various detection scAbs were directly conjugated with HRP and detected using chemiluminescent protocol as before. The lowest levels of detection achieved using different detection scAbs and a comparison of colourimetric and chemiluminescent methods of detection are shown in Table 28
The assay was conducted using chemiluminescent protocol described above.

T1 sequence (P10636 1-441 isoform P10636-8): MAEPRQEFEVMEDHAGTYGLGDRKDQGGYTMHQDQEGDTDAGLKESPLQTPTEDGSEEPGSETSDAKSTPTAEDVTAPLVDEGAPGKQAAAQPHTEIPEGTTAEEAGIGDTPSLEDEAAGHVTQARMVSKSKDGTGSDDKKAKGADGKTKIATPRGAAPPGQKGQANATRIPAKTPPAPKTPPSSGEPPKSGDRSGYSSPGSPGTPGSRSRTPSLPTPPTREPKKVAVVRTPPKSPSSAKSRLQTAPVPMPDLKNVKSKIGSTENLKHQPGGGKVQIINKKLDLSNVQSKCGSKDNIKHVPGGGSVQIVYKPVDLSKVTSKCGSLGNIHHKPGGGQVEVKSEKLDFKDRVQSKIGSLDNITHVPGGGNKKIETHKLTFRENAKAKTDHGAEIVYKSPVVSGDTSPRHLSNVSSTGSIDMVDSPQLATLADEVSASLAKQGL
Sequence of aggregated dGAE (P10636 614-708): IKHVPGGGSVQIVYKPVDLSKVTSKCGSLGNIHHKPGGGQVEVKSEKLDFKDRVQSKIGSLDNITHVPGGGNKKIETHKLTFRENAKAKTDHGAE
Sequence of dGAE (P10636 614-708): as above

Row | Molecule | cross-reactivity of 'E' group scAbs using hT40, dGA and dGAE antigens [1] | Kd (dGAE) [s⁻¹] | ability to capture aggregated dGAE (aggregated dGAE) | also measured
1 | B1 | specific dGAE binding | 0.0014 |  | 
2 | B2 |  |  | most efficient at capturing aggregated dGAE | 
3 | B3 |  |  | most efficient at capturing aggregated dGAE | 
4 | B4 | specific dGAE binding | 0.0001915 |  | T441 binding (in words) (hT40 [2]; Table 23): No T441 binding; hT40 binding (in words) (hT40 [2]; Table 26 summary): No hT40 binding
5 | B5 |  |  |  | LoD chemiluminescence detection (hT40 [3]): 0.37 ng/mL; LoD colourimetric detection (hT40 [3]): 6 ng/mL
